B1: CMK1: yeast calcium/calmodulin-dependent serine/threonine protein kinase, GST-HisX6 fusion (protein)
chain: MDDKVSEKESSPKQTEEDSEGKMAHVQPASYVNKKKYVFGKTLGAGTFGVVRQAKNTETGEDVAVKILIKKALKGNKVQLEALYDELDILQRLHHPNIVAFKDWFESKDKFYIITQLAKGGELFDRILKKGKFTEEDAVRILVEILSAVKYMHSQNIVHRDLKPENLLYIDKSDESPLVVADFGIAKRLKSDEELLYKPAGSLGYVAPEVLTQDGHGKPCDIWSIGVITYTLLCGYSAFRAERVQDFLDECTTGEYPVKFHRPYWDSVSNKAKQFILKALNLDPSKRPTAAELLEDPWIICTELKTHNLLPGLKEGLDARQKFRNSVERVRLNMKIQKLRDLYLEQTESDSDFDEGSQANGSVPPLKATDTSQLSKKLSEEEQSKLKSELTSKAFAQLVNTVLAEKEKFLNINRVCSSDSDLPGSDIKSLDEAKEKPEGKDTKTEE
modifications: left off: a dimerising Fc or GST
notes: yeast calcium/calmodulin-dependent serine/threonine protein kinase, GST-HisX6 fusion
B2: MY04: yeast class V myosin heavy chain, GST-HisX6 fusion (protein, UniProt P32492 1-1471, looked up)
Myosin-4: MSFEVGTKCWYPHKEQGWIGGEVTKNDFFEGTFHLELKLEDGETVSIETNSFENDDDHPTLPVLRNPPILESTDDLTTLSYLNEPAVLHAIKKRYMNGQIYTYSGIVLIAANPFDKVDHLYSREMIQNYSSKRKDELEPHLFAIAEEAYRFMVHEKANQTVVVSGESGAGKTVSAKYIMRYFASVQESNNREGEVEMSQIESQILATNPIMEAFGNAKTTRNDNSSRFGKYLQILFDENTTIRGSKIRTYLLEKSRLVYQPETERNYHIFYQILEGLPEPVKQELHLSSPKDYHYTNQGGQPNIAGIDEAREYKITTDALSLVGINHETQLGIFKILAGLLHIGNIEMKMTRNDASLSSEEQNLQIACELLGIDPFNFAKWIVKKQIVTRSEKIVTNLNYNQALIARDSVAKFIYSTLFDWLVDNINKTLYDPELDQQDHVFSFIGILDIYGFEHFEKNSFEQFCINYANEKLQQEFNQHVFKLEQEEYVKEEIEWSFIEFSDNQPCIDLIENKLGILSLLDEESRLPSGSDESWASKLYSAFNKPPSNEVFSKPRFGQTKFIVSHYAVDVEYEVEGFIEKNRDSVSLGHLDVFKATTNPIFKQILDNRELRSDDAPEEQNTEKKIMIPARLSQKKPTLGSMFKKSLGELMAIINSTNVHYIRCIKPNSEKKPWEFDNLMVLSQLRACGVLETIRISCAGFPSRWTFDEFVQRYFLLTDYSLWSGILYNPDLPKEAIVNFCQSILDATISDSAKYQIGNTKIFFKAGMLAFLEKLRTNKMNEICIIIQKKIRARYYRLQYLQTMESIKKCQSQIRSLLVRTRVDHELKTRAAILLQTNIRALWKREYYRAAIGQIIKLQCTCKRKLILDSVNRKFMLMAAVIIQSYIRSYGHKTDYRTLKRSSILVQSAMRMQLARRRYIVLQKEVEERNIRASYGIGLLEEAIEFKNSFILNLEMLNDSYTRLTQLLQGDLSNIPSKQRQEYETIVNGYNDKISKLKTLQVEIMNTLNKKNALKERKKKQSSLIQSHMQSLAAIKGNKPSRLSDEVKSMKQELAFIENVIAQDFTTTYSANKNDKVKGLGIAGQQVKPKLVNVIRRESGNPDLLELLMDLNCYTLEVTEGYLKKVNVTEVNGDNVLGPIHVITTVVSSLVRNGLLIQSSKFISKVLLTVESIVMSLPKDETMLGGIFWLSNLSRLPAFAANQKTLYEANGGDEKDKLTLIYLNDLENETLKVFDKIYSTWLVKFMKHASAHIEIFDMVLNEKLFKNSGDEKFAKLFTFLNEFDAVLCKFQVVDSMHTKIFNDTLKYLNVMLFNDLITKCPALNWKYGYEVDRNIERLVSWFEPRIEDVRPNLIQIIQAVKILQLKISNLNEFKLLFDFWYALNPAQIQAILLKYKPANKGEAGVPNEILNYLANVIKRENLSLPGKMEIMLSAQFDSAKNHLRYDTSAITQNSNTEGLATVSKIIKLDRK
modifications: GST-HisX6 tag
notes: yeast class V myosin heavy chain, GST-HisX6 fusion

What was measured:
Conditions in all cases: liposome binding signal on yeast proteome chip, Cy3-streptavidin detection
[1] = tested on: phosphatidylcholine (PC) liposomes; assay: Yeast proteome chip probed with PC liposomes
How it was run: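 Yeast proteome chips incubated 1 h at RT with sonicated liposomes of PC containing 1% (w/w) biotin-DHPE, plus 5% (w/w) of the indicated phosphoinositide where applicable. After PBS washes, bound liposomes detected with Cy3- or Cy5-streptavidin (>30 min, RT, dark) and fluorescence scanned.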

PI(3,4,5)P3 liposomes = assay: Yeast proteome chip probed with PI(3,4,5)P3 liposomes
PI(3,4)P2 liposomes = assay: Yeast proteome chip probed with PI(3,4)P2 liposomes
PI(3)P liposomes = assay: Yeast proteome chip probed with PI(3)P liposomes
PI(4,5)P2 liposomes = assay: Yeast proteome chip probed with PI(4,5)P2 liposomes
PI(4)P liposomes = assay: Yeast proteome chip probed with PI(4)P liposomes

| Molecule | PC [1] | PI(3, 4, 5)P3 (PI(3,4,5)P3 liposomes) | PI(3, 4)P2 (PI(3,4)P2 liposomes) | PI(3)P (PI(3)P liposomes) | PI(4, 5)P2 (PI(4,5)P2 liposomes) | PI(4)P (PI(4)P liposomes) |
| --- | --- | --- | --- | --- | --- | --- |
| B1 | 1073.54 | 699.07 | 1786.71 | 7.00 | 545.23 | 105.39 |
| B2 | 103.89 | 51.07 | 171.73 | 2.00 | 4.79 | 36.58 |
